Target: Full-length human AURKA^T288V (human, UniProt O14965 1-403, T288V)
Assay: FP; competition with FITC-Tpx2 1-43

Chain of Full-length human AURKA^T288V (O14965 other isoform, or with tags, fused parts or gaps T288V | T288V): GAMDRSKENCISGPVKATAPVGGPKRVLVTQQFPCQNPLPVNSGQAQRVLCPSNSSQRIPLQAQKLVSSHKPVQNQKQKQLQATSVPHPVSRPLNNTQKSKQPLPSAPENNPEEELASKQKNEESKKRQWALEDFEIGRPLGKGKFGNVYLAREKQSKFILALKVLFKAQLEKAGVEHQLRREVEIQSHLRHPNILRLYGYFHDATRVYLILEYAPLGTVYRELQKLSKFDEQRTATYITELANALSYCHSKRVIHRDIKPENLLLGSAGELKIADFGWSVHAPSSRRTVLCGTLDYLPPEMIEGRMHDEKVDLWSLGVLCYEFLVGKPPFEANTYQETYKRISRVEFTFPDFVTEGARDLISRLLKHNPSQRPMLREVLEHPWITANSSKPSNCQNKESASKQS

B1: pBora^18–120 (domain or fragment)
chain: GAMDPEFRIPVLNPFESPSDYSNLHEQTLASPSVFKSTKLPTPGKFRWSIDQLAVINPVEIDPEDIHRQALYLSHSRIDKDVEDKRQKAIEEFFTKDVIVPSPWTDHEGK
modifications: phosphorylated (kinase and sites not stated for the fluorescence polarisation assay)
For B1, the IC50 was 680 nM.

— paper PMC7997955 (2021)
